Patent US20260116970A1 (NMI NATURWISSENSCHAFTLICHES UND MEDIZINISCHES INSTITUT AN …, published 2026)

T1: murine SIRPα on U2OS cells (mouse, UniProt P97797 32-513)
T1 construct: whole, on cells; also called mouse SIRPα
T1 sequence (looked up): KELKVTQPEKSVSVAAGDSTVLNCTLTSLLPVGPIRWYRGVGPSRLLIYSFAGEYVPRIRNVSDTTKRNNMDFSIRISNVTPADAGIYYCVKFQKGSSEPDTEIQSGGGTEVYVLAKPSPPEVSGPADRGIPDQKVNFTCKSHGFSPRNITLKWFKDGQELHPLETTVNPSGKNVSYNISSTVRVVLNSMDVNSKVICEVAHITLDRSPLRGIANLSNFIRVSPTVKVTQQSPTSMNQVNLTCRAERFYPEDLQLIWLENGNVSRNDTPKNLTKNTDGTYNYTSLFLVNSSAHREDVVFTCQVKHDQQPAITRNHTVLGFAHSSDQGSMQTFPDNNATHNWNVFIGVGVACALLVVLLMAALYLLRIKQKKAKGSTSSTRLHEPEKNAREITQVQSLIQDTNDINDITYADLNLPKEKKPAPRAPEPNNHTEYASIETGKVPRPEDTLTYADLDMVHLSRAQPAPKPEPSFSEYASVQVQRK


Assays:
[1] = biological target: T2, recombinant hSIRPα (extracellular portion) (human, UniProt P78324 31-373, biotinylated with Sulfo-NHS-LC-LC-Biotin where immobilised on streptavidin sensors); experiment: BLI, biotinylated hSIRPα immobilised on streptavidin biosensors, Nb in solution, global 1:1 fit
T2 construct: extracellular domain; The limits aa31-370 are stated for the immunogen; The BLI and HDX text says only 'recombinant hSIRPα' / 'biotinylated hSIRPα'; also called biotinylated hSIRPα
Procedure: (§1) Biotinylated hSIRPα was immobilized on streptavidin biosensors.
(§2) Analysis of binding kinetics of hSIRPα specific Nbs was performed using the Octet RED96e system (Sartorius) as per the manufacturer's recommendations. In brief, […] of biotinylated hSIRPα diluted in Octet buffer (PBS, 0.1% BSA, 0.02% Tween20) was immobilized on streptavidin coated biosensor tips (SA, Sartorius) for 40 s. In the association step, a dilution series of Nbs ranging from 0.625-320 nM were reacted for 240 s followed by dissociation in Octet buffer for 720 s. Every run was normalized to a reference run applying Octet buffer for association. Data were analyzed using the Octet Data Analysis HT 12.0 software applying the 1:1 ligand-binding model and global fitting. For epitope binning two consecutive association steps with different Nbs were performed. By analyzing the binding behavior of the second Nb, conclusions about shared epitopes were drawn. For the hCD47 competition assay hCD47 was biotinylated and immobilized on SA biosensors followed by the application of pre-mixed solutions containing hSIRPα (20 nM) and Nb (250 nM). As control the hCD47-competing Ab KWAR23 (5 nM) was used.

[2] = biological target: T1, murine SIRPα on U2OS cells; experiment: live-cell immunofluorescence on U2OS cells transiently expressing murine SIRPα
Procedure: (§3) Stably expressing hSIRPα U2OS cells, U2OS wt or U2OS cells transiently expressing individual hSIRPα domains (D1-3) with SPOT-Tag or different hSIRP family members (hSIRPα-V1, hSIRPα-V2, hSIRPβ1, hSIRPγ, murine SIRPα) were plated at ˜10,000 cells per well of a μClear 96-well plate (Greiner Bio One, cat. #655090) and cultivated overnight at standard conditions. For imaging, medium was replaced by live-cell visualization medium DMEMgfp-2 (Evrogen, cat. #MC102) supplemented with 10% FBS, 2 mM L-glutamine, 2 μg/ml Hoechst33258 (Sigma Aldrich) for nuclear staining. 1-100 nM of unlabeled hSIRPα Nbs in combination with 2.5 μg/ml anti-VHH secondary Cy5 AffiniPure Goat Anti-Alpaca IgG (Jackson Immuno Research) were added and incubated for 1 h at 37° C. For control staining hSIRPα Ab PE (SE5A5, BioLegend) and bivSPOT-Nb labeled with AlexaFluor647 (AF647) were used. Images were acquired with a MetaXpress Micro XL system (Molecular Devices) at 20× or 40× magnification.
(§4) Moreover, with hSIRPαV1 and hSIRPαV2, two isoforms are expressed either homozygously (v1/v1 or v2/v2) or heterozygously (v1/v2), and the frequency of distribution varies between human subpopulations (Sim et al., “Discovery of high affinity, pan-allelic, and pan-mammalian reactive antibodies against the myeloid checkpoint receptor SIRPα”, MAbs. Taylor & Francis (2019) pp. 1036-1052). To address the question of specificity, hSIRPβ1, hSIRPγ or the hSIRPα polymorphisms hSIRPα-V1 and hSIRPα-V2 were transiently expressed in U2OS cells and their recognition was analyzed by the selected hSIRPα Nbs by immunofluorescence staining. In addition, murine SIRPα was included to evaluate potential cross-reactivity between human and mouse SIRPα variants (FIG. 3A; data not shown).

[3] = biological target: T2, recombinant hSIRPα (extracellular …); experiment: BLI, biotinylated hSIRPα immobilised on streptavidin biosensors, chelator conjugated S36K>R at 1.25-10 nM
Procedure: Biotinylated hSIRPα was immobilized on streptavidin biosensors. Kinetic measurements were performed by using four concentrations of purified Nbs ranging from 1.25 nM to 10 nM; (E) Stability analysis of chelator conjugated hSIRPα-S36_{K>R} Nb by nanoDSF as fluorescence ratios (350 nm/330 nm) and light intensity loss due to scattering illustrated as first derivative before (To) and after 10 days of accelerated aging at 37° C. (T₁₀); and (F) Phagocytosis of DLD-1 cells by human monocyte-derived macrophages treated with anti-EGFR cetuximab and chelator conjugated hSIRPα-S36_{K>R} Nb. Analysis of phagocytosis of hSIRPα-S36_{K>R} Nb in combination with cetuximab of three different donors (K1, K2, K3). Data are presented as mean±SD of three technical replicates. And
Analysis of binding kinetics of hSIRPα specific Nbs was performed using the Octet RED96e system (Sartorius) as per the manufacturer's recommendations. In brief, […] of biotinylated hSIRPα diluted in Octet buffer (PBS, 0.1% BSA, 0.02% Tween20) was immobilized on streptavidin coated biosensor tips (SA, Sartorius) for 40 s. In the association step, a dilution series of Nbs ranging from 0.625-320 nM were reacted for 240 s followed by dissociation in Octet buffer for 720 s. […] Data were analyzed using the Octet Data Analysis HT 12.0 software applying the 1:1 ligand-binding model and global fitting. […]

[4] = biological target: T2, recombinant hSIRPα (extracellular …); experiment: BLI, biotinylated hSIRPα immobilised on streptavidin biosensors, S36 at 0.625-5 nM, global 1:1 fit
Procedure: as §1, §2

[5] = biological target: T3, hSIRPβ1 on U2OS cells (human, UniProt O00241 30-398); experiment: immunofluorescence on U2OS cells transiently expressing hSIRPβ1
T3 construct: whole, on cells; also called SIRP beta
Procedure: as §3, with “For control staining hSIRPα Ab PE (SE5A5, BioLegend) and bivSPOT-Nb labeled with AlexaFluor647 (AF647) were used. Images were acquired with a MetaXpress Micro XL system (Molecular Devices) at 20× or 40× magnification.” left out
(§5) Moreover, with hSIRPαV1 and hSIRPαV2, two isoforms are expressed either homozygously (v1/v1 or v2/v2) or heterozygously (v1/v2), and the frequency of distribution varies between human subpopulations (Sim et al., “Discovery of high affinity, pan-allelic, and pan-mammalian reactive antibodies against the myeloid checkpoint receptor SIRPα”, MAbs. Taylor & Francis (2019) pp. 1036-1052). To address the question of specificity, hSIRPβ1, hSIRPγ or the hSIRPα polymorphisms hSIRPα-V1 and hSIRPα-V2 were transiently expressed in U2OS cells and their recognition was analyzed by the selected hSIRPα Nbs by immunofluorescence staining. […]

[6] = biological target: T4, hSIRPγ on U2OS cells (human, UniProt Q9P1W8 29-387); experiment: immunofluorescence on U2OS cells transiently expressing hSIRPγ
T4 construct: whole, on cells; also called SIRP gamma
Procedure: as §3, with “For control staining hSIRPα Ab PE (SE5A5, BioLegend) and bivSPOT-Nb labeled with AlexaFluor647 (AF647) were used. Images were acquired with a MetaXpress Micro XL system (Molecular Devices) at 20× or 40× magnification.” left out
as §5

[7] = biological target: T4, hSIRPγ on U2OS cells; experiment: live-cell immunofluorescence on U2OS cells transiently expressing hSIRPγ, detection with anti-VHH-Cy5
Procedure: (§6) Data are presented as mean±SD of three technical replicates.
as §3, §4

[8] = biological target: T5, hSIRPα-V2 on U2OS cells (human, UniProt P78324 31-504); experiment: live-cell immunofluorescence on U2OS cells transiently expressing hSIRPα-V2, detection with anti-VHH-Cy5
T5 construct: whole, on cells
Procedure: as §6
Stably expressing hSIRPα U2OS cells, U2OS wt or U2OS cells transiently expressing individual hSIRPα domains (D1-3) with SPOT-Tag or different hSIRP family members (hSIRPα-V1, hSIRPα-V2, hSIRPβ1, hSIRPγ, murine SIRPα) were plated at ˜10,000 cells per well of a μClear 96-well plate (Greiner Bio One, cat. #655090) and cultivated overnight at standard conditions. For imaging, medium was replaced by live-cell visualization medium DMEMgfp-2 (Evrogen, cat. #MC102) supplemented with 10% FBS, 2 mM L-glutamine, 2 μg/ml Hoechst33258 (Sigma Aldrich) for nuclear staining. […]
as §5

T4 sequence (Q9P1W8 29-387): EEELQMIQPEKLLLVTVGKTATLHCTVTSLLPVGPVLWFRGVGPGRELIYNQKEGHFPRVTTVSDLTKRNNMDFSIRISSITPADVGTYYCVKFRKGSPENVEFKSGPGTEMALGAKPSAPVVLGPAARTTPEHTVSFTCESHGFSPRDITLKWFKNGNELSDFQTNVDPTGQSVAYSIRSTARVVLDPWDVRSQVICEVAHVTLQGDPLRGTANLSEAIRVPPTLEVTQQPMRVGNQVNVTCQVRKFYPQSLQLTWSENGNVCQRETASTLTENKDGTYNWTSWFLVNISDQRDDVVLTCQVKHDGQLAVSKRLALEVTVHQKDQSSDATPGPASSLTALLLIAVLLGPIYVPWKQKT
T2 sequence (P78324 31-373): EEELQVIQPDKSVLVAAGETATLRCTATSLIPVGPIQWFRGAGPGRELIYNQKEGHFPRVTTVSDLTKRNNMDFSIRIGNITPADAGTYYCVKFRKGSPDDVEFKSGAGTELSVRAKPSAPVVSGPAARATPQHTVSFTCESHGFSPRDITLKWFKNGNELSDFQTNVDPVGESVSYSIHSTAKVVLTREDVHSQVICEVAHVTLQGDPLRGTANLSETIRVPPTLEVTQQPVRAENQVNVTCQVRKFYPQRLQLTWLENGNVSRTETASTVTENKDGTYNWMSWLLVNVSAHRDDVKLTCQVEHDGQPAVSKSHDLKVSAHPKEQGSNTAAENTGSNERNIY
T5 sequence (P78324 other isoform, or with tags, fused parts or gaps limits assumed): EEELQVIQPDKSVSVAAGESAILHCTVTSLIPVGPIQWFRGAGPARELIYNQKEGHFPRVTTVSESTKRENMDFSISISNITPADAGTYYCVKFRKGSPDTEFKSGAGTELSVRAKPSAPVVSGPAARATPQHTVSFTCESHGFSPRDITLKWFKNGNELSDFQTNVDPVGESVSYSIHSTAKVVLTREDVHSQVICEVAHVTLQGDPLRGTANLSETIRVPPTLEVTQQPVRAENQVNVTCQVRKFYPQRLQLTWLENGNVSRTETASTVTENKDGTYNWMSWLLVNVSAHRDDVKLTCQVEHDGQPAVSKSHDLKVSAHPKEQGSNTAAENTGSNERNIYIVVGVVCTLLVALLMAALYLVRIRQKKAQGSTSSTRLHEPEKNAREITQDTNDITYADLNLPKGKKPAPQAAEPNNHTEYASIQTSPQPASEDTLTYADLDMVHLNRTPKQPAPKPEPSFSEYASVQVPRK
T3 sequence (O00241 30-398): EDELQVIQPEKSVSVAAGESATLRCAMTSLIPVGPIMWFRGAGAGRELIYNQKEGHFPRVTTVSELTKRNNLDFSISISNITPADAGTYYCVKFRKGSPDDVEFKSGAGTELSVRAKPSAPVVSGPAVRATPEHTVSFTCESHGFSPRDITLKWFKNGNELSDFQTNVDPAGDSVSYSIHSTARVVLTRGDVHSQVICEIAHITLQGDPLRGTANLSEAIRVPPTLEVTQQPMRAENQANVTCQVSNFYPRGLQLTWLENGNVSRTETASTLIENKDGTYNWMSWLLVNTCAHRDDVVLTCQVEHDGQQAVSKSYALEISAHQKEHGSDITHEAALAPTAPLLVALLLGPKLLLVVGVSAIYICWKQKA

Row | Kd [1] | koff [1] | kon [1] | binding result [2] | Kd [3] | Kd [4] | binding result [5] | binding result [6] | Binder | binding result [7] | binding result [8]
1 | 5.65 nM | 0.00383 s⁻¹ | 678000 M⁻¹ s⁻¹ | – | – | – | – | – | hSIRPα nanobody S41 (VHH, The single assignment S41 = 26 follows only from the listing order; also called Nb S41) VHH: HVQLVESGGGLVQPGGSLRLSCAASGETLDYYAIGYVRQAPGKEREGVSCISSRGDNTNYADSVKGRFTISRDNANNTVYLQMNSLKPEDTAVYYCVAIKDSWQNYYCSVGWVEYDVWGQGTQVTVSS | – | –
2 | 0.46 nM | 0.0009 s⁻¹ | 2.04e+06 M⁻¹ s⁻¹ | no binding (tested: 1-100 nM) | – | – | – | – | hSIRPα nanobody S8 (VHH, Purified by IMAC; the tag is not described; also called Nb S8) VHH: QVQLVESGGGLVQPGGSLRLSCADSEFRLDEYATGWFRQAPGKEREGVACISRSGSNTKYTDSVKGRFTISRDNAKKTVYLQMNSLKPEDTAVYYCAADLTSHYLSCSSYTDYNSWGQGTQVTVSS | – | –
3 | – | – | – | – | 0.19 nM | – | – | – | chelator conjugated hSIRPα-S36K>R Nb (VHH, p-NCS-benzyl-NODA-GA chelator conjugated to the single remaining primary NH2-group at the N-terminus) VHH: EVQLVESGGGLVQPGGSLRLSCAASGFTLDYYAIGWFRQVPGREREGVSCISSDGGGNTYYADSVRGRFTISRDNARNTVYLQMNSLRPEDSAVYSCAAGPTYYSGSYCRDPHSDYDYWGQGTQVTVSS | – | –
4 | 0.12 nM | 0.0002 s⁻¹ | 1.52e+06 M⁻¹ s⁻¹ | no binding (tested: 1-100 nM) | – | 0.12 nM | binds | binds | hSIRPα nanobody S36 (VHH, also called Nb S36; hSIRPα-S36 Nb) VHH: EVQLVESGGGLVQPGGSLRLSCAASGFTLDYYAIGWFRQVPGKEREGVSCISSDGGGNTYYADSVKGRFTISRDNAKNTVYLQMNSLKPEDSAVYSCAAGPTYYSGSYCRDPHSDYDYWGQGTQVTVSS | – | –
5 | 20 nM | 0.0123 s⁻¹ | 610000 M⁻¹ s⁻¹ | no binding (tested: 1-100 nM) | – | – | – | – | hSIRPα nanobody S7 (VHH, Expressed from pHEN6 in E. coli and purified by IMAC; the tag is not described; also called Nb S7) VHH: HVQLVESGGGLVQVGDSLRLSCAPSGRTFRAYAMAWFRQAPGKEREFVAAIRWIGGTPSYKDSVKGRFTISRDNARNTFYLQMNSLEPQDTGVYYCAAEETQKGSGLGHDGRHYDYWGQGTPVTVSS | no binding (tested: not on the sheet; 1-100 nM per paragraph 140) | –
6 | 2.53 nM | 0.00164 s⁻¹ | 646000 M⁻¹ s⁻¹ | no binding (tested: 1-100 nM) | – | – | – | – | hSIRPα nanobody S45 (VHH, also called Nb S45) VHH: HVQLVESGGGLVQPGGSLRLSCAARGFSFRDSAMSWARQAPGKGLEWVGAIYSDGSTVYEKSVKGRFTISRDNAKNTMYLQMHSLKPEDSARYYCAPKGVVADEGDYSGQGTLVTVSS | no binding (tested: not on the sheet; 1-100 nM per paragraph 140) | –
7 | 4.61 nM | 0.00915 s⁻¹ | 1.99e+06 M⁻¹ s⁻¹ | no binding (tested: 1-100 nM) | – | – | – | – | hSIRPα nanobody S44 (VHH, also called Nb S44) VHH: QVQLQESGGGLVQPGGSLRLACAASGFTFSSYDMSWVRQAPGKGLEWVSDIKSGGGRTYYADSVKGRFTISRDNAKNTVYLQMNSLKPEDTAVYYCGSLDNSGAYTGGGQGSQVTVSS | – | no binding (tested: not on the sheet; 1-100 nM per paragraph 140)
8 | 25.9 nM | 0.0127 s⁻¹ | 490000 M⁻¹ s⁻¹ | no binding (tested: 1-100 nM) | – | – | – | – | hSIRPα nanobody S12 (VHH, also called Nb S12) VHH: QVQLVESGGGLVQPGGSLRLSCLVSGFSSSYYAIGWFRQAPGKEREGVSCITRSGDTTNYADSVKGRFTISRDDARNTVYLQMNSLKTEDTAVYSCALWAWAGSGRLRCTASEYGHWGQGTQVTVSS | – | no binding (tested: not on the sheet; 1-100 nM per paragraph 140)
9 | 20 nM | 0.00544 s⁻¹ | 267000 M⁻¹ s⁻¹ | no binding (tested: 1-100 nM) | – | – | – | – | hSIRPα nanobody S33 (VHH, also called Nb S33) VHH: EVQLVESGGGLVQPGGSLRLSCTTSGFTLDYYSVGWFRQAPGKEREGVSCITASGSSTNYANSVKGRFTISRDKVKNTVYLQMSSLKPEDTAVYYCAAEPCTVVAGILQAPTSDFGSWGQGTQVTVSS | no binding (tested: not on the sheet; 1-100 nM per paragraph 140) | –
